Experimental data as given in US20250011363A1, “OPTIMIZED SHORTENED PEPTIDE THAT BINDS TO ACETYLCHOLINE RECEPTOR, AND USE THEREOF” (SKINMED CO., LTD., priority 2021, published 2025).

What follows are binders tested against acetylcholine receptor (assay: SPR, AchR immobilized on CM5 chip, peptide 10 uM).

Binder | Binding affinity (RU)
KRKDKK [6mer-1-792] | 30 RU
RRDCFR [6mer-1-798] | 18 RU
RRPDAR [6mer-1-779] | 30 RU
KRMMPK [6mer-1-789] | 19 RU
KKNAWK [6mer-1-782] | 30 RU
RRHAFK [6mer-1-796] | 28 RU
KKPNPK [6mer-1-790] | 12 RU
KKTPNR [6mer-1-793] | 31 RU
KKCHMR [6mer-1-795] | 12 RU
KKESIK [6mer-1-787] | 16 RU
RRDDFR [6mer-1-778] | 28 RU
KKTCER [6mer-1-785] | 19 RU
RKPDDK [6mer-1-791] | 13 RU
KKFTPK [6mer-1-784] | 33 RU
RRAWNK [6mer-1-797] | 22 RU
KRIKEK [6mer-1-786] | 26 RU
KKNEFK [6mer-1-783] | 29 RU
RRHNHR [6mer-1-777] | 16 RU
KRKCWR [6mer-1-780] | 24 RU
RKYEPK [6mer-1-794] | 11 RU
RRHWDK [6mer-1-781] | 16 RU
RKIPKK [6mer-1-788] | 22 RU

These binders were tested against acetylcholine receptor (assay: SPR, AchR immobilised, peptide 10 uM).

Binder | Binding affinity (RU)
KRPNVR [6mer-1-639] | 24 RU
KRYSMR [6mer-1-643] | 31 RU
KKFWEK [6mer-1-648] | 17 RU
KRPDNR [6mer-1-626] | 27 RU
RRKTAK [6mer-1-620] | 11 RU
RRTTIR [6mer-1-645] | 33 RU
KKESHR [6mer-1-638] | 20 RU
RRYSDR [6mer-1-631] | 13 RU
KKIDKR [6mer-1-619] | 23 RU
RREMFK [6mer-1-641] | 21 RU
KKDHFR [6mer-1-607] | 22 RU
RKMDAK [6mer-1-629] | 11 RU
RRENEK [6mer-1-628] | 23 RU
KKNTMR [6mer-1-634] | 12 RU
RRCNNR [6mer-1-650] | 18 RU
KRIMKK [6mer-1-613] | 14 RU
KRMNDR [6mer-1-654] | 23 RU
KRIMER [6mer-1-612] | 17 RU
KKNCHK [6mer-1-611] | 23 RU

Binder | Binding affinity (RU)
RKTWFR [6mer-1-644] | 31 RU
RKYKDR [6mer-1-636] | 27 RU
KKACMR [6mer-1-608] | 18 RU
RRCTGK [6mer-1-646] | 33 RU
RKIDAK [6mer-1-633] | 16 RU
KKTSER [6mer-1-615] | 18 RU
KRMTHR [6mer-1-653] | 15 RU
KKNTIK [6mer-1-616] | 31 RU
RRFEFK [6mer-1-637] | 33 RU
RKDTAR [6mer-1-632] | 17 RU
KKFTKK [6mer-1-604] | 24 RU
RKCHVK [6mer-1-618] | 19 RU
KKYNGK [6mer-1-642] | 24 RU
RKNADR [6mer-1-605] | 20 RU
RKNPVR [6mer-1-609] | 24 RU
RRTDWR [6mer-1-623] | 21 RU
RRPEVK [6mer-1-652] | 26 RU
RKNMFR [6mer-1-655] | 12 RU
KKCPNR [6mer-1-622] | 18 RU

Binder | Binding affinity (RU)
KKEWNK [6mer-1-601] | 27 RU
KRICWK [6mer-1-651] | 27 RU
RRNCWR [6mer-1-640] | 25 RU
RKYNVR [6mer-1-647] | 14 RU
KRHNVR [6mer-1-617] | 31 RU
KKPPAK [6mer-1-624] | 30 RU
KKEEER [6mer-1-614] | 12 RU
RKAEKR [6mer-1-602] | 18 RU
RRIAGK [6mer-1-649] | 32 RU
KKHHER [6mer-1-610] | 27 RU
RRPTHK [6mer-1-656] | 28 RU
RRMAGK [6mer-1-621] | 30 RU
KREDKK [6mer-1-625] | 33 RU
KRPHFK [6mer-1-603] | 13 RU
RREWFR [6mer-1-606] | 15 RU
KKTTWK [6mer-1-635] | 33 RU
KRMEPR [6mer-1-630] | 14 RU
RRTWWR [6mer-1-627] | 29 RU
